Results from US20240025997A1 (NGM BIOPHARMACEUTICALS, published 2024).

Legend:
human ILT2 on cells [1] = target: T1, human ILT2 on cells (human, UniProt Q8NHL6 24-650); assay: cell-based or functional assay
Human ILT2-Fc = Human ILT2-Fc (human, UniProt Q8NHL6 24-461, limits assumed); assay: SPR (Biacore) competition: blocking of human ILT2-Fc binding to HLA-A, 25 C
Experimental: (§1) In addition to the reporter cell system, the inhibitory activity of anti-ILT2/ILT4 antibodies towards the interaction between ILT2 and MHC I molecules, and the interaction between ILT4 and MHC I molecules was evaluated using the Biacore system. Human ILT2-Fc and ILT4-Fc were used as target receptors and their interaction with an exemplary MHC-I molecule (HLA-A) was assayed in the presence or absence of an exemplary anti-ILT2/ILT4 antibody Hz73D1.v1 at 25° C. Anti-human ILT2 (clone 27F9) or ILT4 (clone 48A5) antibodies were used as tool reagents to dissect ILT2- and ILT4-specific blocking activities. Anti-IL2/ILT4 antibodies produced a dose-dependent reduction in the interaction between ILT2 and HLA-A, as well as between ILT4 and HLA-A. IC50s of the antibodies tested are shown in Table 16.

soluble human ILT2-ECD [2] = target: T2, soluble human ILT2-ECD (human, UniProt Q8NHL6 24-461); assay: SPR (Biacore), antibody captured on Protein A chip, soluble ILT-ECD injected (1.6-200 nM), 25 C
T2 construct: also called LILRB1 extracellular domain
Experimental: (§2) The binding affinities of anti-ILT2 and anti-ILT4 antibodies were measured using a Biacore system (GE Healthcare LifeSciences). Equilibrium dissociation constant (KD) measurements were carried out with purified antibodies to evaluate their binding to human ILT2, human ILT4, and rhesus ILT2. Briefly, purified anti-ILT2 antibody 27F9, anti-ILT4 antibodies 47C8 and 48A5, and anti-ILT2/ILT4 antibodies 47H6, 51A1, 64A12, 73C4, and 73D1 were captured on a Sensor Chip Protein A (GE HealthCare). The surface of the Biacore Sensor Chip Protein A consists of a carboxymethylated dextran matrix with a recombinant Protein A variant covalently attached. Soluble human ILT2-ECD, human ILT4-ECD, or rhesus ILT2-ECD were injected at a flow rate of 30 μL/min at 25° C. The ILT2 or ILT4 proteins were used at concentrations ranging from 1.6-200 nM in PBS-P buffer with 2 fold dilutions. Kinetic data were collected over time and fit using the simultaneous global fit equation to yield affinity constants (KD values) for each antibody.

human ILT4 on cells = target: T3, human ILT4 on cells (human, UniProt Q8N423 22-597); assay: flow cytometry, fluorescently labelled antibody on immune cell subsets of PBMC / red-cell-depleted whole blood
T3 construct: also called LILRB2; human ILT4 expressed on 293T cells
Experimental: (§3) Flow cytometry analysis of blood immune cells was performed on human and cyno PBMC and whole blood. PBMC were prepared from a leukopak (Allcells Inc.) by centrifugation through ficoll, washing with PBS and freezing in cryopreservation buffer in liquid nitrogen until use. Whole blood (Allcells Inc.) was obtained fresh and red blood cells (RBC) depleted using ammonium chloride RBC lysing solution (Biolegend). PBMC or whole blood samples were stained with a fluorescently labeled antibody panel to distinguish various immune subsets (monocytes, B cells, NK cells, CD4+ and CD8+ T cells, neutrophils and eosinophils). Samples were further stained with fluorescently labeled isotype, 27F9 (ILT2 specific), 48A5 (ILT4 specific), 73D1, and Hz73D1.v1. The number of ILT2 and ILT4 molecules per cell of each immune subset was estimated by incubation with Quantum Simply Cellular microspheres followed by flow cytometry analysis.

[3] = target: T4, human ILT4 chimeric reporter receptor (ILT4 extracellular domain fused to PILRbeta … (human, UniProt Q8N423 22-460)); assay: reporter cell assay (not a direct binding assay): human ILT4 reporter cells co-cultured with Raji cells, %GFP+ by FACS
T4 construct: On the surface of NFAT-GFP reporter cells; associates with DAP12; also called ILT4 reporter cells; Human ILT4 reporter construct; not shown: The PILRbeta transmembrane/intracellular domain
Experimental: (§4) The ability of anti-ILT2/ILT4 antibodies to inhibit the interaction between ILT2 and/or ILT4 and MHC I molecules was evaluated using a reporter cell system. […] In this chimeric receptor system, the extracellular domain of the receptor of interest (e.g., ILT2 or ILT4) is fused with the transmembrane/intracellular domain of PILRβ that associates with the adaptor protein DAP12. When the chimeric receptor (e.g., ILT2 or ILT-4) is activated by binding to a ligand (e.g., MHC I molecule), DAP12 becomes phosphorylated and activates an NFAT-responsive promoter which drives GFP expression (see, e.g., Deng et al., 2014, Blood, 124:924-935).
(§5) Reporter cells were washed after staining and resuspended at 1×10⁶ cells/ml in X-VIVO™ 15 media (Lonza). […] For assays with Raji cells: anti-ILT2 antibody 27F9, anti-ILT4 antibody 48A5, anti-ILT2/ILT4 antibody 73D1 and Hz73D1.v1, and a control antibody were serially diluted and 50 μl was added to each well of a 96-well flat-bottom cell culture plate. […] The plates were incubated overnight at 37° C. The next day, reporter cells were assayed for GFP expression by FACS.

soluble human ILT4-ECD [4] = target: T5, soluble human ILT4-ECD (human, UniProt Q8N423 22-460); assay: Biacore competition: antibody titrated against 20 nM ILT4-ECD, mixture injected over biotinylated HLA-A*1101 on a NeutrAvidin chip
T5 construct: also called LILRB2 extracellular domain
Experimental: (§6) As part of the characterization process, the ability of exemplary antibodies to inhibit or block the interaction of ILT2 or ILT4 with their natural ligands was evaluated in competition experiments using a Biacore system. As described herein, the natural ligands of ILT2 and ILT4 include, but are not limited to, HLA class I molecules, including HLA-A, HLA-B, HLA-C, HLA-E, and HLA-G. Biotinylated HLA-A*1101 was captured in high amounts on a NeutrAvidin chip surface. Antigen-antibody complexes were prepared with (i) ILT2-ECD and anti-ILT2 antibody 27F9, anti-ILT4 antibody 48A5, or anti-ILT2/ILT4 antibody Hz73D1.v1 and (ii) ILT4-ECD and anti-ILT2 antibody 27F9, anti-ILT4 antibody 48A5, or anti-ILT2/ILT4 antibody Hz73D1.v1. The antibody concentration of each antibody was titrated from 0.09-100 nM and the concentration of human ILT2-ECD or ILT4-ECD was kept constant at 20 nM. The complexes were mixed in a 96-well microplate and each was injected onto the HLA-A-coated chip surface. The measured signal (response unit, RU) was plotted against the antibody concentration.

soluble human ILT2-ECD [5] = target: T2, soluble human ILT2-ECD; assay: Biacore competition: antibody titrated against 20 nM ILT2-ECD, mixture injected over biotinylated HLA-A*1101 on a NeutrAvidin chip; blocked ligand HLA-A*1101
Experimental: as §6

soluble human ILT2-ECD [6] = target: T2, soluble human ILT2-ECD; assay: SPR (Biacore), antibody captured on Protein A chip, soluble human ILT2-ECD injected, 25 C
Experimental: as §2

soluble human ILT4-ECD [7] = target: T5, soluble human ILT4-ECD; assay: SPR (Biacore), antibody captured on Protein A chip, soluble ILT-ECD injected (1.6-200 nM), 25 C
Experimental: as §2

Human ILT4-Fc = Human ILT4-Fc (human, UniProt Q8N423 22-460); assay: SPR (Biacore) competition: blocking of human ILT4-Fc binding to HLA-A, 25 C
Experimental: as §1

human ILT2 on cells [8] = target: T1, human ILT2 on cells; assay: flow cytometry, fluorescently labelled antibody on immune cell subsets of PBMC / red-cell-depleted whole blood
Experimental: as §3

[9] = target: T6, human ILT2 chimeric reporter receptor (ILT2 extracellular domain fused to PILRbeta … (human, UniProt Q8NHL6 24-461)); assay: reporter cell assay (not a direct binding assay): human ILT2 reporter cells co-cultured with Raji cells, %GFP+ by FACS
T6 construct: On the surface of NFAT-GFP reporter cells; associates with DAP12; also called ILT2 reporter cells; Human ILT2 reporter construct; not shown: The PILRbeta transmembrane/intracellular domain
Experimental: as §4, §5

soluble human ILT2-ECD [10] = target: T2, soluble human ILT2-ECD; assay: Biacore competition: antibody titrated against 20 nM ILT2-ECD, mixture injected over biotinylated HLA-A*1101 on a NeutrAvidin chip
Experimental: as §6

soluble human ILT4-ECD [11] = target: T5, soluble human ILT4-ECD; assay: Biacore competition: antibody titrated against 20 nM ILT4-ECD, mixture injected over biotinylated HLA-A*1101 on a NeutrAvidin chip; blocked ligand HLA-A*1101
Experimental: as §6

T2 sequence (Q8NHL6 24-461): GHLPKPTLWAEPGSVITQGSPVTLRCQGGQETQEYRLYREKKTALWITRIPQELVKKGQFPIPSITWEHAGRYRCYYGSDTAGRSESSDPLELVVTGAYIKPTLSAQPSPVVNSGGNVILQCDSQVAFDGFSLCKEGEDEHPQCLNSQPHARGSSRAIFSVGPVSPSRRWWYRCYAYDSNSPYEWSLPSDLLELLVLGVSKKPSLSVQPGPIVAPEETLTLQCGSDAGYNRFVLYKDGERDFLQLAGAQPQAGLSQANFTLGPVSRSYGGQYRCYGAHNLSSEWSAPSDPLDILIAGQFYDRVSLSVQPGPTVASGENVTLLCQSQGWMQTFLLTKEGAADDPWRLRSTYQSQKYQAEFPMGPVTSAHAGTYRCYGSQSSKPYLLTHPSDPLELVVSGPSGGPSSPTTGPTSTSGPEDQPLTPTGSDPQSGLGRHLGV
T5 sequence (Q8N423 other isoform, or with tags, fused parts or gaps): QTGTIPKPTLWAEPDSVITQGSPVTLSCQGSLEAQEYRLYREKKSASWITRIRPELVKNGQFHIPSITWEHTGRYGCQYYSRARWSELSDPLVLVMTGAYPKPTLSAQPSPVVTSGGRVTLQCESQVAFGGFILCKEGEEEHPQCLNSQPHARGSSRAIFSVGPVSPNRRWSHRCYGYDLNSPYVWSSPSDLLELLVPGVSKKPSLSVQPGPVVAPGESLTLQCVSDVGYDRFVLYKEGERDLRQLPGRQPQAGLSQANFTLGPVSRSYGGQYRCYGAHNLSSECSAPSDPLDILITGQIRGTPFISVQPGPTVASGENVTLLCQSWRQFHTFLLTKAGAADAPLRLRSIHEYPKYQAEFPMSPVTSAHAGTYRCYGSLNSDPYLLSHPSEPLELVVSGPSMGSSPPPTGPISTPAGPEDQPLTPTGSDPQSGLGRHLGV
T1 sequence (Q8NHL6 24-650): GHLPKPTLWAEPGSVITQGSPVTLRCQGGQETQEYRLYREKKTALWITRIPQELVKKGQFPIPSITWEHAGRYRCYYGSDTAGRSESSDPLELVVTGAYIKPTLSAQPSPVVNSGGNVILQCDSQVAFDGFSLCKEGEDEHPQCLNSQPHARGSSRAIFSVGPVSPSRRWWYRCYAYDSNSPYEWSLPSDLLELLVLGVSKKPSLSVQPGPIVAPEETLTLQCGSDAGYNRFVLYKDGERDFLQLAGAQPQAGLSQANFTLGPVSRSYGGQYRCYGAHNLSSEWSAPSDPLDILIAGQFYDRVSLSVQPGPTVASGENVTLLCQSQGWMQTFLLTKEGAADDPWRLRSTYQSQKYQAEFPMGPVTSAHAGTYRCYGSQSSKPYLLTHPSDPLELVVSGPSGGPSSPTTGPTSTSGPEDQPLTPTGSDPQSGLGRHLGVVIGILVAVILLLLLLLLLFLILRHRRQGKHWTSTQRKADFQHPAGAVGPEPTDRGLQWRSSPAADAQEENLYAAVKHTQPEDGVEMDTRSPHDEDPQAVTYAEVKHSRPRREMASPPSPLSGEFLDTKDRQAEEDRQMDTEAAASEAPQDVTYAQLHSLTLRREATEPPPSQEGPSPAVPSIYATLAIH
T3 sequence (Q8N423 other isoform, or with tags, fused parts or gaps): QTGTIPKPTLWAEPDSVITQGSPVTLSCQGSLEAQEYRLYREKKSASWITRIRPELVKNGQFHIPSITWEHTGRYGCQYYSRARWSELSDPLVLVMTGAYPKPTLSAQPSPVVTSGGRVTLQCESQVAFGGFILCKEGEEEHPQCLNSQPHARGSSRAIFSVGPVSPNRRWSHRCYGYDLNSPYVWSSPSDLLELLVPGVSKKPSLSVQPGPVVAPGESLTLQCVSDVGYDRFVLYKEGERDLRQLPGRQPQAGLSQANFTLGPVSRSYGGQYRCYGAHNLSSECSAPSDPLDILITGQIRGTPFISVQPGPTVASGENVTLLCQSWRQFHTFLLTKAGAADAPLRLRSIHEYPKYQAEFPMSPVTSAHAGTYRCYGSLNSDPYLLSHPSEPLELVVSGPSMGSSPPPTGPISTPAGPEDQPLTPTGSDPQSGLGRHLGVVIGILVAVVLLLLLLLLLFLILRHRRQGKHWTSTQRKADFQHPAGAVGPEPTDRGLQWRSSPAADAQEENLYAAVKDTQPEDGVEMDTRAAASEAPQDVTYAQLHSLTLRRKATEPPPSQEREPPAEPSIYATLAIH
T6 sequence (Q8NHL6 24-461 limits assumed, change not shown): as the sequence (Q8NHL6 24-461) above
Human ILT2-Fc, sequence (Q8NHL6 24-461 limits assumed): as the sequence (Q8NHL6 24-461) above

EC50, NKL cytolytic activity against 721.221-HLA-G target cells (human ILT2 on cells [1]) [nM]	IC50 (Human ILT2-Fc) [nM]	Kd (soluble human ILT2-ECD [2]) [nM]	koff (soluble human ILT2-ECD [2]) [s⁻¹]	kon (soluble human ILT2-ECD [2]) [M⁻¹ s⁻¹]	binding result (human ILT4 on cells)	binding result (soluble human ILT4-ECD [4])	IC50 (read off the curve) (soluble human ILT2-ECD [5]) [nM]	binding result (soluble human ILT2-ECD [6])	Kd (soluble human ILT4-ECD [7]) [nM]	koff (soluble human ILT4-ECD [7]) [s⁻¹]	kon (soluble human ILT4-ECD [7]) [M⁻¹ s⁻¹]	IC50 (Human ILT4-Fc) [nM]	binding result (human ILT2 on cells [8])	binding result (soluble human ILT2-ECD [10])	IC50 (read off the curve) (soluble human ILT4-ECD [11]) [nM]	Binder	binding result [3]	binding result [9]
0.064	8.9	0.26	5.4e-05	210000	no binding (tested: not given)	no binding (tested: about 200 nM)	~9									anti-ILT2 antibody 27F9 (antibody, V domains shown, Mouse hybridoma antibody; also called clone 27F9; anti-ILT2 (27F9)) VH: QVQLKESGPGLVAPSQSLSITCTVSGFSLTNYGVSWVRQPPGKGLEWLGIIWGDGSTNYHSALISRLSISKDNSKSQVFLKLNSLQADDTATYYCAKPNWDTYAMDFWGQGTSVTVSS VL: DIQMTQTTSSLSASLGDRVTISCRASQDISNFLNWYQQKPDGTVKLLIYCTSKLHSGVPSRFSGSGSETDYSLTISNLEQEDIATYFCQQGNTLPPTFGGGTKLEII	no binding (tested: Log nM about 1.5 (about 30 nM))	
								no binding (tested: 1.6-200 nM)	0.074	2.5e-05	340000					anti-ILT4 antibody 47C8 (antibody, V domains shown, Mouse hybridoma antibody) VH: EVQLQQSGPDLVKPGASVKISCKASGYSFTGYYMHWVKQSHGKSLEWIGRVYPNNGDTSYNQKFKVKAILTVDKSSSTAYMELRSLTSEDSAVYYCARGATVVESLFAYWGQGTLVTVSA VL: DIVLTQSPASLAVSLGQRATISCRASESVDNYGNNFLHWYQQKPGQPPKLLIYRTSNLESGIPARFSGSGSRTDFTLTINPVEADDVATYYCQQSNEDPYTFGGGTKLEIK		
					binds				0.026	2.1e-05	810000	8.4	no binding (tested: not given)	no binding (tested: about 200 nM)	~20	anti-ILT4 antibody 48A5 (antibody, V domains shown, Mouse hybridoma antibody; also called clone 48A5; anti-ILT4 (48A5)) VH: QIQLVQSGPELKKPGETVKISCKASGYTFTNYGMNWVKQAPGKGLKWMGWINTYIGEPIYADDFKGRFAFSLETSASTAYLQINNLKNEDMATYFCARRSDYDGYAMDYWGQGTSVTVSS VL: DIVMSQSPSSLAVSVGERVTMSCKSSQSLLYSGNQKNYLAWYQQKPGQSPKLLIYWASTRESGVPDRFTGSGSGTDFTLTISSVKAEDLAVYYCQQHDSYPTFGGGSRLEIK		no binding (tested: Log nM about 1.5 (about 30 nM))
